Results on 1 substance are retold here after patent US20230151068A1.

The assay concerns the target biotinylated His-Avi-TEAD (194-411) (UniProt P28347). The assay is described as follows: SPR, biotinylated TEAD immobilized on the chip, Siderocalin-YAP as analyte. (In general: SPR reads the build-up and loss of mass on a sensor chip optically.)

Chain of Siderocalin-fused YAP (50-171) (P80188 other isoform, or with tags, fused parts or gaps): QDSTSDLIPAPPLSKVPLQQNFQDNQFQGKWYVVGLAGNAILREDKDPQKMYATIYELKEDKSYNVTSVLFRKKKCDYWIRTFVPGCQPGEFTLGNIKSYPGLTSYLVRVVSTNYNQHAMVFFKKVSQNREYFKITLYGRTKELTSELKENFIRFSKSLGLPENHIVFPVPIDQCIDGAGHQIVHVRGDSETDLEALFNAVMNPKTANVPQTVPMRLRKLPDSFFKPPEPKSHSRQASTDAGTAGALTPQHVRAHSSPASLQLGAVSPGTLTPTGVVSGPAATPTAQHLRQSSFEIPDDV

For “Siderocalin-fused YAP (50-171) (from UniProt P80188 21-198; P46937 50-171)”, the Kd (in general, the free concentration of one partner at which half of the binding sites on the other are occupied at equilibrium, for simple one-to-one binding) came out at 570 nM.
